The numbers were not newly measured in article PMC4316816, which cites them from elsewhere.

The term Kd denotes a measure of binding affinity in units of concentration.

In the data set the target is ANP (UniProt P01160).
Sequence of UniProt P01160 (P01160 124-151): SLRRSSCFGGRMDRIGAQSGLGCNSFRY

Turning to GC-A/NPRA (from UniProt P16066), the Kd is 24 nM.
